Test results taken from article PMC9887883, “A family of C. elegans VASA homologs control Argonaute pathway specificity and promote transgenerational silencing”.

Molecular target: T1, GLH-1(DQAD) (Caenorhabditis elegans, UniProt P34689 1-763, E500Q)
T1 sequence: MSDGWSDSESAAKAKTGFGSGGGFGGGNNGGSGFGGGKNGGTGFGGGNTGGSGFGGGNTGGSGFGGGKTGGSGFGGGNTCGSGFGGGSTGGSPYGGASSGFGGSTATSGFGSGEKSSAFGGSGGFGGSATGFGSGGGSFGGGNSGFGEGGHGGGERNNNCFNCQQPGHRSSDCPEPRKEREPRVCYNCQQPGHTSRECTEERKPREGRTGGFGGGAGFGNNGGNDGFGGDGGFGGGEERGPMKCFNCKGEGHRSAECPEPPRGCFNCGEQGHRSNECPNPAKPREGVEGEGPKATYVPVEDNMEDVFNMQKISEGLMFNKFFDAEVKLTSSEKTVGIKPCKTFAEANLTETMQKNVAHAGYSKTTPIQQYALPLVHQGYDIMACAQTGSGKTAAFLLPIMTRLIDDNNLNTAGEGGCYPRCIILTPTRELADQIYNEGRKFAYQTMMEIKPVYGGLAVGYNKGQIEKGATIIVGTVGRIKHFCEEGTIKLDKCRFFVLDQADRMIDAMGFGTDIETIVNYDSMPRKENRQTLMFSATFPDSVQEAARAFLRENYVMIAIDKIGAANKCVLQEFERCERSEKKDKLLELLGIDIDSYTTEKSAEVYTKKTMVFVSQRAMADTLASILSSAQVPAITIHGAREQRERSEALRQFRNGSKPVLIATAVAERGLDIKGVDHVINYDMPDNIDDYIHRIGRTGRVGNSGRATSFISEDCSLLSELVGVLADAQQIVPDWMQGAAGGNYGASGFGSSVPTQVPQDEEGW
Assay: EMSA; 2 mM ATP, 2 mM MgCl2; 10 uM protein, 2 uM RNA; strong ATP-dependent binding; 25 mM HEPES pH 7.4, 150 mM NaCl, 2 mM MgCl2, +/- 2 mM ATP, 30 min at RT; native 8% PAGE in TBE, cold room
Conditions: protein: recombinant; tags: FLAG; label: 5'-Cy3 (Methods); single strand

Binder: GUCAAAGAUAGCCUUGACCUUG (ssRNA) [22-nt ssRNA oligo]
- binding result: binds
